These results are taken from the DeepSol protein solubility set.

This series is described as follows: soluble on expression in E. coli; label from the status in PepcDB or PDB records.
With “MGSSHHHHHHSSGLVPRGSHMSSTMSADQSNRARPVIRIKENPEDFTVEEVADIPKSDNGKYTIIKAEIIDWDTNRIVEEIASALRISRKRISYAGTKDKRARKIQYFCINAPVDVSVLAFKGFRIIDRFRSDHYLRLGDLTANHFRIRFQGASDDYIEQRYEKMMECGGFPNYFGQQRFGSRRRNTHDVGRLIVTGRYEDAVRLYLYDERYDIEDYRREFIETLDYNRALEKFPRTLRFERSIIGYYAQHHTFKGAFDALPKNLSIMFVHAYQSYLFNRMLSLRIEKYGLNRAIPGDTAFPVDRYFNPDKSRPVEVNEVNVDTINQLIERDRLRVALPIIGSEVGPDQSDFGEIEKKILEEEHVDRSMFRNSEYPHLSSTGDRRIVSAKPVDFSVSNSVMDFTLGRGIYATTLISTFGDLVDFDAESDGF”, the “soluble on expression in E. coli” value was “soluble”. The same measure for “MGSSHHHHHHSSGRENLYFQGHMSANVQEAANAAIEPASFVKVPMPEPPSSLQQLINDWQLIKHREGGYFKETDRSPYTMEVEKPVNGGSGNTEMVTRNQSTLIYYLLTPDSPIGKFHKNINRIIHILQRGKGQYVLVYPDGQVKSFKVGFDYKNGEVSQWVVPGGVFKASFLLPNEEFDNGFLISEVVVPGFDFEDHTFLKGEDELKHLVGPEKAAELAFLA”: “soluble”; for “MGSSHHHHHHSSGRENLYFQGMKVVFLICNPAAGGGRAGKIWNRVEDLLKKHGIDHKFAFTERPGHAMEISKKAFKEGYRRIAAFGGDGTVNEMVNGIFLNGYDLREVVFGWIPFGSGKDWARTIGVPLEIEEAIKMLKDGKEFVQDLGVGEYEKASGEIEKRAFVNVAGLFFDGFVTYRTNLLKRKNRVSYFSRIFSSIIEYDPPTARIQIDEKVWEKRVFSMNVGICKYNGGGMNQLPHAVPDDGLLAVTVINDIGKLRILANLHRVFNGKLLEHPGVEGYQAKKVVVEFQRDEPVEFDGESFWAKKIFFSIIPGVIRVLVKK”: “soluble”; for “MGSSHHHHHHSSGRENLYFQGMSVVFGVDIVGGSVHGKIKPKYAVVVLENGNEFEKIVSRSKLFRMVKKEKPDIIAVDNIYEVFKDKKDLIFFLKNAPSKTKLVQVTDRENSLPSLSKRFGLNINIRNPVDEARACAYLASFGMGSEISVFTDKTKITVSRNRSLGKGGWRQKKYGRKIHNAVREVYKEIRDRIVEAGFEFVEEVRKGYGGISRGVILVSAPRDRVPINSFKTRDVQVAVEAVEKEKIEFIPLRRTLRYLIVGIDPGATTAIAALDLRGELVDMKSRKGWSPAEVIEFISSLGKPVVVSTDKSSPPEFVSKIRASFNAVLYTPKEDMSVEKKRILTSKYSTSNDHERDALAAAIDAFNSYKSKLINVEKRLPAGIDSDRIKAEIIRGTPLKEVLSVTREESREEKVQAETVSREEILKRDRVIERLKEENRILSRKIKEMKDEIEKLRARVASISREEHEKIRKDTYVQNLEREIFDLRKKLKEKDEEIEQLKERIALLRKMKMLEFQGWKEVKVLRKFTKEEIERAEREMGISEGDIILIVDSSGGSASLAEMLCEKKVRAIIYGSEMSHLAAETFEKYNIPRISIDEVEIMMGDDIAVVNAEEFERVYAEKLEETKRRKIDFLEKLVEDYRRRRVV”: “soluble”.

“MGSSHYHHHHSSGLVPRGSHMAEKPISPTKTRTRFEDIQAHYDVSDDFFALFQDPTRTYSCAYFEPPELTLEEAQYAKVDLNLDKLDLKPGMTLLDIGCGWGTTMRRAVERFDVNVIGLTLSKNQHARCEQVLASIDTNRSRQVLLQGWEDFAEPVDRIVSIEAFEHFGHENYDDFFKRCFNIMPADGRMTVQSSVSYHPYEMAARGKKLSFETARFIKFIVTEIFPGGRLPSTEMMVEHGEKAGFTVPEPLSLRPHYIKTLRIWGDTLQSNKDKAIEVTSEEVYNRYMKYLRGCEHYFTDEMLDCSLVTYLKPGAAA”: the “soluble on expression in E. coli” value is listed as “soluble”. The same measure for “MGSVAARDYVGIATKYAEAAVADKGRKRHGRWIRLAAKRFLDDLKRARRRGTPFFFDEWHANDACDFIEKLPHVEGKWETPTIVMHPSHVFFVVQLFGFRRRDAIKVEGWGDDDTFHPRRFTSALFAVARKNAKSTLASAILLYCLCCEPEEGAQVISAATTFDQASIIFRASKRMVEKTPDLAEAFGLATWAKSISRFETGSSYKAVHAKASTQDGLNPSHTGLDEIHAHKTADLLNVLQSAAGARANPLWLFTTTEGYTNAGPWAEIRGFVFALLRGVLGTQADHFLALFYALDNEDKSAKITQDDEFDESKWIKANPLLDVNPHLKAAIRKEAVEAKQMPSKLAEFRIKRCNRPASTASGWVDLTKWAKCGGAVDLDWLAGYPCWGGLDLASTTDIAAFRLLWLVEGVWYTHGWRWVPSEAVKQRTERATVPYAGWVEAGYLLQTEGDVTDYSVIERDILAAVQRFDPQQIAYDAWNAADLVNRLVAASVPMVQFVQGTKSYHPAMQALELAYVGGKLVHGGDPVLAWCASNLVARRDVNLSMAPDRKRSADKIDDMAALLMAMGLAVASDDAEDLSDFFNNAVIGLEHHHHHH”: “soluble”; for “MGSVSKANVPKIDVSPLFGDDQAAKMRVAQQIDAASRDTGFFYAVNHGINVQRLSQKTKEFHMSITPEEKWDLAIRAYNKEHQDQVRAGYYLSIPGKKAVESFCYLNPNFTPDHPRIQAKTPTHEVNVWPDETKHPGFQDFAEQYYWDVFGLSSALLKGYALALGKEENFFARHFKPDDTLASVVLIRYPYLDPYPEAAIKTAADGTKLSFEWHEDVSLITVLYQSNVQNLQVETAAGYQDIEADDTGYLINCGSYMAHLTNNYYKAPIHRVKWVNAERQSLPFFVNLGYDSVIDPFDPREPNGKSDREPLSYGDYLQNGLVSLINKNGQT”: “soluble”.

Regarding “MGTFTLHQGQTNLIKSFFRNYYLNAELELPKDMELREFALQPFGSDTYVRHLSFSSSEELRDYLVNRNLPLHLFYSSARYQLPSARNMEEKAWMGSDLLFDIDADHLCKLRSIRFCPVCGNAVVSEKCERDNVETLEYVEMTSECIKRGLEQTRNLVEILEDDFGLKPKVYFSGNRGFHVQVDCYGNCALLDSDERKEIAEYVMGIGVPGYPGGSENAPGWVGRKNRGINGVTIDEQVTIDVKRLIRIPNSLHGKSGLIVKRVPNLDDFEFNETLSPFTGYTIFLPYITIETEVLGSIIKLNRGIPIKIKSSIGIYLHLRNLGEVKAYVR”, the “soluble on expression in E. coli” value is “soluble”. The same measure for “MGTIPASTYYPTHFMRGTQLNVANGNIKKVEDLSSDDFLRCAAESDDVIVNASVIKSIKSTAGSVTIIFETGIEKQLIPLKCQVEHPFFVLGKGWCSCNPRKSGENYGLDCEILQVDDVCIVLTRNEDKITDCAVDIVTAERDLELFSQRAALKEQLVDVYYERVSGRVSAPPERVLVTFSNEHRERRISE”: “not soluble”; for “MGTLLATRLKNRRKELKMSQRELAEGICKQGQISRLESGEFTPGADFLHALAKKLKVSMDYFFDEQVVEEVNELSEFKKLAQTFITNRNYESLKYIYELENVKAHRLSLADKFYMEWIKSLIDFYFYGQKEEAITRLENMLPQLNVSDLNYLQVSNTLFNFYYDIEDLERFNEIRDKLEHQVNQLNLNTIEELELSIKFNYNVCRYLWLQKNIEEAITKITATIKQCKEYRTTYLLADLYLLMGSVSENFSSKSSVKEYFETAHFLYKLEENMSMALKVEHYFADITE”: “not soluble”; for “MGTWPLTVTKEMEKRKELFRRDPNRALIGAGGYKAADEAIVHDAAIALALGKNVLLKGPTGSGKTRLAETLSALFGQPMHSINCSVDLDAEALLGFKTIVHKNSQAVIEYVPGPVIQAMTKGHLLYIDEINMAKPETLPILNSVLDYRRRLTNPLTGDIVQAKQTFGVIAAINEGYIGTVPLNEALKNRFVVINVPYVQGETLKSVLLAQTTLTDETLIDRFVALSADLLAQVRNGQIAEEAASVRALLDACDLAAYMPPLRAIERSIVDKLDDERERAAVRNIAETWFDE”: “not soluble”. As to “MGVCRICGLSLDEISDSIGVCLECLRKGNLDFARKAHRKWREEIGLPVERWAREEGKVCFLCVNSCVIPEGKTGFCGVLRNEGGRLSYITGSHRKAFLHWYYDPHPTNCVALPICPEREHRGFYNFAVFFAGCNLDCLFCQNIDHKYMVKDGRISEGKIVDIDELVEIAMKPRVSCVCFFGGDPTPWTVFALEFAVKLGNRRRICWETNGLAHPRIMERMARVSLESGGIVKIDWKAFSPEVYEALTGVDGKSAVRRIMENVQLVSSMGKGREIPLLVISVLVIPHYIDEKEIEGIAGFISSVDPEIPLVLLAFAPQHLMSDLPTTRKHHMERVKQKALEKGLKRVFVENVWLLS”, the “soluble on expression in E. coli” value is reported as “not soluble”. “MGVVNVPSNGREKFKKNWKFCVGTGRLGLALQKEYLDHLKLVQEKIGFRYIRGHGLLSDDVGIYREVEIDGEMKPFYNFTYIDRIVDSYLALNIRPFIEFGFMPKALASGDQTVFYWKGNVTPPKDYNKWRDLIVAVVSHFIERYGIEEVRTWLFEVWNEPNLVNFWKDANKQEYFKLYEVTARAVKSVDPHLQVGGPAICGGSDEWITDFLHFCAERRVPVDFVSRHAYTSKAPHKKTFEYYYQELEPPEDMLEQFKTVRALIRQSPFPHLPLHITEYNTSYSPINPVHDTALNAAYIARILSEGGDYVDSFSYWTFSDVFEEMDVPKALFHGGFGLVALHSIPKPTFHAFTFFNALGDELLYRDGEMIVTRRKDGSIAAVLWNLVMEKGEGLTKEVQLVIPVSESAVFIKRQIVNEQYGNAWRVWKQMGRPRFPSRQAVETLRQVAQPHVMTEQRRATDGVIHLSIVLSKNEVTLIEIEQVRDETSTYVGLDDGEITSYSS”: the “soluble on expression in E. coli” value is “soluble”.

As for “MGYKELLLECQKLLNEGDFEGMIKKLEELSKMEPSSKEEAEESLKLLDFLIEEVKKRQEEIFNKMVNYQKFKNYLR”, the “soluble on expression in E. coli” value is “not soluble”.

For “MHAVHQLHQYRKSLSTTTYKSRGQRVIRCQLCQLAKPFCICEISPLKENVETTAGFLLLMYDTEVLKPSNTGKLIADLIPDTFAFLWSRTQENPDLLAVINDEKWFPLVVFPQEYADDERKVFTNNVICPEGKRPLFIMLDGSWREAKKMFRKSPYLDRFPMVSFDVKTAIQAVSGNCQSENNSQLSPVGQDSRYTVRKTELEHQFSTAEVAARVLDMHGETTNAHMLDLWFDVFNFQYQKGVCQRNKGNVNAIENYQSFLAKTYRLEHHHHHH”, the “soluble on expression in E. coli” value was “not soluble”. The value for “MHELFHPIFANGEEKAALQQLIIALDASGKRYFLRNEILHTFSQYCQQAQKPTYFYYSSSVGKLIQYTHEIVLAEDGTWFVVRPRIASQEVWRLTSDLAKFDSMSIDAFLDVSDRLVNAYEPNILEIDLNSFYEASPSISDPRNIGQGLAFLNRYLCSQIATDPQYWVELVYLALRGLQYDGINLMIGDAIPSGIHLAKQIHAAIKFLSALPPEEPYEKFYIELQKLGFEPGWGNTAQRILETITLLDKLIDSPQPAVLEAFVARVPAVFRVVLVSIHGWVAQEDVMGRDETLGQVIYVLEQARSLENKLQQEIKLAGLEVLGIQPHVIILTRLIPNCEGTYCNLRLEKLHNTENAWILRVPFGEFNPEITNNWISKFEIWPYLETFALDAEKQLLAQFQGKPNLIIGNYSDGNLVAFLLARRLKVTHCNIAHSLEKPKNLFSNLYWQDSEEKYHFSVQFTADLITMNAADFIITSSYQEIFGTPESIGQYESYKFFTMPHLYHVVDGIDLFNPKFNMVPPGVNEQVFFPYSQTADRDPNVSKHVHDLLEHHHHHH” was “not soluble”.
